Laboratory results taken from the supplement of paper PMC11246515.
± gives the standard deviation of the averaged measurements.

Test: total protein half-life in vivo (active degradation + dilution); higher = more stable protein
[1] = E. coli NCM3722 delta-clpP delta-lon delta-hslV, growth: N-lim chemostat, doubling time 6 h
[2] = E. coli NCM3722 delta-clpP, growth: N-lim chemostat, doubling time 6 h
[3] = E. coli NCM3722 delta-hslV, growth: N-lim chemostat, doubling time 6 h
[4] = E. coli NCM3722 delta-lon, growth: N-lim chemostat, doubling time 6 h
[5] = E. coli NCM3722 delta-smpB, growth: N-lim chemostat, doubling time 6 h
[6] = wild type E. coli NCM3722, growth: C-lim chemostat, doubling time 3 h
[7] = wild type E. coli NCM3722, growth: C-lim chemostat, doubling time 6 h
[8] = wild type E. coli NCM3722, growth: C-lim chemostat, doubling time 12 h
[9] = wild type E. coli NCM3722, growth: N-lim chemostat, doubling time 6 h
[10] = wild type E. coli NCM3722, growth: P-lim chemostat, doubling time 6 h
[11] = wild type E. coli NCM3722, growth: P-lim chemostat, doubling time 12 h
[12] = wild type E. coli NCM3722, growth: N-lim chemostat, doubling time 12 h

Sequence	total protein half-life in vivo [1] [h]	total protein half-life in vivo [2] [h]	total protein half-life in vivo [3] [h]	total protein half-life in vivo [4] [h]	total protein half-life in vivo [5] [h]	total protein half-life in vivo [6] [h]	total protein half-life in vivo [7] [h]	total protein half-life in vivo [8] [h]	total protein half-life in vivo [9] [h]	total protein half-life in vivo [10] [h]	total protein half-life in vivo [11] [h]	total protein half-life in vivo [12] [h]
MFPPMWRRLIYHPDINYALRQTLVLCLPVAVGLMLGELRFGLLFSLVPACCNIAGLDTPHKRFFKRLIIGASLFATCSLLTQLLLAKDVPLPFLLTGLTLVLGVTAELGPLHAKLLPASLLAAIFTLSLAGYMPVWEPLLIYALGTLWYGLFNWFWFWIWREQPLRESLSLLYRELADYCEAKYSLLTQHTDPEKALPPLLVRQQKAVDLITQCYQQMHMLSAQNNTDYKRMLRIFQEALDLQEHISVSLHQPEEVQKLVERSHAEEVIRWNAQTVAARLRVLADDILYHRLPTRFTMEKQIGALEKIARQHPDNPVGQFCYWHFSRIARVLRTQKPLYARDLLADKQRRMPLLPALKSYLSLKSPALRNAGRLSVMLSVASLMGTALHLPKSYWILMTVLLVTQNGYGATRLRIVNRSVGTVVGLIIAGVALHFKIPEGYTLTLMLITTLASYLILRKNYGWATVGFTITAVYTLQLLWLNGEQYILPRLIDTIIGCLIAFGGTVWLWPQWQSGLLRKNAHDALEAYQEAIRLILSEDPQPTPLAWQRMRVNQAHNTLYNSLNQAMQEPAFNSHYLADMKLWVTHSQFIVEHINAMTTLAREHRALPPELAQEYLQSCEIAIQRCQQRLEYDEPGSSGDANIMDAPEMQPHEGAAGTLEQHLQRVIGHLNTMHTISSMAWRQRPHHGIWLSRKLRDSKA	6.2 ± 0.17	6.9	4.97 ± 0.47	5.47 ± 0.38	5.02 ± 0.33	> 4	5.87	13.4 ± 0.3	6.05 ± 0.55	6.24 ± 0.091	12.2 ± 0.44	–
MNTIASVTLPHHVHAPRYDRQQLQSRIVHFGFGAFHRAHQALLTDRVLNAQGGDWGICEISLFSGDQLMSQLRAQNHLYTVLEKGADGNQVIIVGAVHECLNAKLDSLAAIIEKFCEPQVAIVSLTITEKGYCIDPATGALDTSNPRIIHDLQTPEEPHSAPGILVEALKRRRERGLTPFTVLSCDNIPDNGHVVKNAVLGMAEKRSPELAGWIKEHVSFPGTMVDRIVPAATDESLVEISQHLGVNDPCAISCEPFIQWVVEDNFVAGRPAWEVAGVQMVNDVLPWEEMKLRMLNGSHSFLAYLGYLSGFAHISDCMQDRAFRHAARTLMLDEQAPTLQIKDVDLTQYADKLIARFANPALKHKTWQIAMDGSQKLPQRMLAGIRIHQGRETDWSLLALGVAGWMRYVSGVDDAGNAIDVRDPLSDKIRELVAGSSSEQRVTALLSLREVFGDDLPDNPHFVQAIEQAWQQIVQFGAHQALLNTLKI	5.54 ± 0.38	–	–	–	–	0.36 ± 0.057	0.863	0.917	–	–	–	–
MTITPQNLIALLPLLIVGLTVVVVMLSIAWRRNHFLNATLSVIGLNAALVSLWFVGQAGAMDVTPLMRVDGFAMLYTGLVLLASLATCTFAYPWLEGYNDNKDEFYLLVLIAALGGILLANANHLASLFLGIELISLPLFGLVGYAFRQKRSLEASIKYTILSAAASSFLLFGMALVYAQSGDLSFVALGKNLGDGMLNEPLLLAGFGLMIVGLGFKLSLVPFHLWTPDVYQGAPAPVSTFLATASKIAIFGVVMRLFLYAPVGDSEAIRVVLAIIAFASIIFGNLMALSQTNIKRLLGYSSISHLGYLLVALIALQTGEMSMEAVGVYLAGYLFSSLGAFGVVSLMSSPYRGPDADSLFSYRGLFWHRPILAAVMTVMMLSLAGIPMTLGFIGKFYVLAVGVQAHLWWLVGAVVVGSAIGLYYYLRVAVSLYLHAPEQPGRDAPSNWQYSAGGIVVLISALLVLVLGVWPQPLISIVRLAMPLM [P0AFF0]	7.16	6.36 ± 0.41	6.09 ± 1.6	–	6.08	3.46	–	–	5.29	–	11.8 ± 1.4	–
MKKWLLAAGLGLALATSAQAADKIAIVNMGSLFQQVAQKTGVSNTLENEFKGRASELQRMETDLQAKMKKLQSMKAGSDRTKLEKDVMAQRQTFAQKAQAFEQDRARRSNEERGKLVTRIQTAVKSVANSQDIDLVVDANAVAYNSSDVKDITADVLKQVK [P0AEU7]	7.77 ± 0.22	–	6.97 ± 1	6.66 ± 0.53	6.63 ± 0.26	3.15 ± 0.35	6 ± 0.15	10.3 ± 0.22	5.62 ± 0.57	6.79 ± 1	13.7 ± 0.66	13.4 ± 1.8
MTEIQRLLTETIESLNTREKRDNKPRFSISFIRKHPGLFIGMYVAFFATLAVMLQSETLSGSVWLLVVLFILLNGFFFFDVYPRYRYEDIDVLDFRVCYNGEWYNTRFVPAALVEAILNSPRVADVHKEQLQKMIVRKGELSFYDIFTLARAESTS [P0AAS0]	–	–	–	–	–	0.508 ± 0.022	0.836	–	2.01	0.489	0.554	–
MNITPFPTLSPATIDAINVIGQWLAQDDFSGEVPYQADCVILAGNAVMPTIDAACKIARDQQIPLLISGGIGHSTTFLYSAIAQHPHYNTIRTTGRAEATILADIAHQFWHIPHEKIWIEDQSTNCGENARFSIALLNQAVERVHTAIVVQDPTMQRRTMATFRRMTGDNPDAPRWLSYPGFVPQLGNNADSVIFINQLQGLWPVERYLSLLTGELPRLRDDSDGYGPRGRDFIVHVDFPAEVIHAWQTLKHDAVLIEAMESRSLR	5.66 ± 0.067	4.38 ± 0.065	3.92 ± 0.042	4.66 ± 0.2	3.96 ± 0.27	> 4	5.74 ± 0.29	10.9 ± 1.3	4.35 ± 0.28	6.023 ± 0.049	11.4 ± 0.21	6.81 ± 1.1
MLKARNCGWIRLLPLFMLSLPVQAELRCVANAVDIESFFSAATAEDKQQVEQAINSSVNLVPFGLSASNWKVHRGDLVVEGNIESNQKLIVLGNLTVKGNISTFSLSNPWVILGNVTATNIVADSPLLITGSINASGLVFIDSYYDNPSTIKGSINARGIFINDIIAPVVASSTNSEFMVRASDKHDTENVKKALMIINPDAYYWGLINDEDALKEIFKRSNIRMAGNVCNQMKKEALFRPKPSPELVQELQMLDEGKVAAFEGRDIATFDLAVMRTLPRLKGISANLRKQLINSNDEQTIESMARYMPDNEILELTDQQLGYQPVVLGLLDREPLSVEIMTRMSRLPDGVGPLNLALRENLPLDIVMTLAKRDWDMIIQELYKDAWLLPESIIDGYIRSDDSSIRQVGAGGQLTYNQAMQLANDSSNNVVTSLAFKLAEMKHHGQLLRMTPQESDKVAGYLYQKFENDDDLIRVLFLALPDNLQFNFVKRMEKKSPAYFCCRDMQVIHSDAALQRLLTRFNDPEGWSNLAKNQYLSTSMKQKIWQRALSHRKNNPKADSDAYETSADMILSELISHGEVDDQMLLNATALIRSDDWDFLESALISWDNLPAVVLKELQQNTPRNDIWAKFFLRQENSSRAQVDEALRVYYALDPDALAQLDVLAKQPDRIWWSTLAKSNLTFFKFGALNNRHTPPAVLAAEIDPEWWIVAMNNPRFPVDVLKARLKRDPLLALELVNPELDLVRQLALNGKTRAIREQAMRKLDELY	> 8	–	–	–	–	–	–	–	–	–	–	–
MKLNIFTKSMIGMGLVCSALPALAMEAWNNQQGGNKYQVIFDGKIYENAWWVSSTNCPGKAKANDATNPWRLKRTATAAEISQFGNTLSCEKSGSSSSSNSNTPASNTPANGGSATPAQGTVPSNSSVVAWNKQQGGQTWYVVFNGAVYKNAWWVASSNCPGDAKSNDASNPWRYVRAATATEISETSNPQSCTSAPQPSPDVKPAPDVKPAPDVQPAPADKSNDNYAVVAWKGQEGSSTWYVIYNGGIYKNAWWVGAANCPGDAKENDASNPWRYVRAATATEISQYGNPGSCSVKPDNNGGAVTPVDPTPETPVTPTPDNSEPSTPADSVNDYSLQAWSGQEGSEIYHVIFNGNVYKNAWWVGSKDCPRGTSAENSNNPWRLERTATAAELSQYGNPTTCEIDNGGVIVADGFQASKAYSADSIVDYNDAHYKTSVDQDAWGFVPGGDNPWKKYEPAKAWSASTVYVKGDRVVVDGQAYEALFWTQSDNPALVANQNATGSNSRPWKPLGKAQSYSNEELNNAPQFNPETLYASDTLIRFNGVNYISQSKVQKVSPSDSNPWRVFVDWTGTKERVGTPKKAWPKHVYAPYVDFTLNTIPDLAALAKNHNVNHFTLAFVVSKDANTCLPTWGTAYGMQNYAQYSKIKALREAGGDVMLSIGGANNAPLAASCKNVDDLMQHYYDIVDNLNLKVLDFDIEGTWVADQASIERRNLAVKKVQDKWKSEGKDIAIWYTLPILPTGLTPEGMNVLSDAKAKGVELAGVNVMTMDYGNAICQSANTEGQNIHGKCATSAIANLHSQLKGLHPNKSDAEIDAMMGTTPMVGVNDVQGEVFYLSDARLVMQDAQKRNLGMVGIWSIARDLPGGTNLSPEFHGLTKEQAPKYAFSEIFAPFTKQ	4.89 ± 0.41	7.07 ± 0.34	5.22 ± 1.2	–	5.97 ± 0.68	–	5.72	10.9 ± 1.9	5.87 ± 0.36	6.31 ± 0.59	–	12.9 ± 0.98
MKIRALLVAMSVATVLTGCQNMDSNGLLSSGAEAFQAYSLSDAQVKTLSDQACQEMDSKATIAPANSEYAKRLTTIANALGNNINGQPVNYKVYMAKDVNAFAMANGCIRVYSGLMDMMTDNEVEAVIGHEMGHVALGHVKKGMQVALGTNAVRVAAASAGGIVGSLSQSQLGNLGEKLVNSQFSQRQEAEADDYSYDLLRQRGISPAGLATSFEKLAKLEEGRQSSMFDDHPASAERAQHIRDRMSADGIK	5.03 ± 0.95	5.9 ± 0.43	5.87 ± 0.4	–	3.99 ± 0.98	2.69 ± 0.21	5.11 ± 0.41	8.35 ± 1.9	6.22 ± 0.35	3.16 ± 0.24	9.05 ± 5.4	10.2 ± 2.9
MSGWPRIYYKLLNLPLSILVKSKSIPADPAPELGLDTSRPIMYVLPYNSKADLLTLRAQCLAHDLPDPLEPLEIDGTLLPRYVFIHGGPRVFTYYTPKEESIKLFHDYLDLHRSNPNLDVQMVPVSVMFGRAPGREKGEVNPPLRMLNGVQKFFAVLWLGRDSFVRFSPSVSLRRMADEHGTDKTIAQKLARVARMHFARQRLAAVGPRLPARQDLFNKLLASRAIAKAVEDEARSKKISHEKAQQNAIALMEEIAANFSYEMIRLTDRILGFTWNRLYQGINVHNAERVRQLAHDGHELVYVPCHRSHMDYLLLSYVLYHQGLVPPHIAAGINLNFWPAGPIFRRLGAFFIRRTFKGNKLYSTVFREYLGELFSRGYSVEYFVEGGRSRTGRLLDPKTGTLSMTIQAMLRGGTRPITLIPIYIGYEHVMEVGTYAKELRGATKEKESLPQMLRGLSKLRNLGQGYVNFGEPMPLMTYLNQHVPDWRESIDPIEAVRPAWLTPTVNNIAADLMVRINNAGAANAMNLCCTALLASRQRSLTREQLTEQLNCYLDLMRNVPYSTDSTVPSASASELIDHALQMNKFEVEKDTIGDIIILPREQAVLMTYYRNNIAHMLVLPSLMAAIVTQHRHISRDVLMEHVNVLYPMLKAELFLRWDRDELPDVIDALANEMQRQGLITLQDDELHINPAHSRTLQLLAAGARETLQRYAITFWLLSANPSINRGTLEKESRTVAQRLSVLHGINAPEFFDKAVFSSLVLTLRDEGYISDSGDAEPAETMKVYQLLAELITSDVRLTIESATQGEG [P0A7A7]	–	7.2 ± 0.25	6.63 ± 0.61	6.38 ± 0.65	6.36 ± 0.2	3.37 ± 0.17	6.4 ± 0.11	12.2 ± 1.3	6.249 ± 0.032	6.79 ± 0.28	13.4 ± 1.5	13.3 ± 0.35
MADILLLDNIDSFTYNLADQLRSNGHNVVIYRNHIPAQTLIERLATMSNPVLMLSPGPGVPSEAGCMPELLTRLRGKLPIIGICLGHQAIVEAYGGYVGQAGEILHGKASSIEHDGQAMFAGLTNPLPVARYHSLVGSNIPAGLTINAHFNGMVMAVRHDADRVCGFQFHPESILTTQGARLLEQTLAWAQQKLEPANTLQPILEKLYQAQTLSQQESHQLFSAVVRGELKPEQLAAALVSMKIRGEHPNEIAGAATALLENAAPFPRPDYLFADIVGTGGDGSNSINISTASAFVAAACGLKVAKHGNRSVSSKSGSSDLLAAFGINLDMNADKSRQALDELGVCFLFAPKYHTGFRHAMPVRQQLKTRTLFNVLGPLINPAHPPLALIGVYSPELVLPIAETLRVLGYQRAAVVHSGGMDEVSLHAPTIVAELHDGEIKSYQLTAEDFGLTPYHQEQLAGGTPEENRDILTRLLQGKGDAAHEAAVAANVAMLMRLHGHEDLQANAQTVLEVLRSGSAYDRVTALAARG	3.96 ± 0.42	3.018 ± 0.0036	2.96 ± 0.18	3.02 ± 0.12	2.769 ± 0.019	3.23 ± 0.33	4.79 ± 0.1	10.4 ± 1.9	3.01 ± 0.27	6.54 ± 1.6	12.2 ± 3.9	3.72 ± 0.29
